{
  "source": "paper PMC9191634",
  "about": "(Proceedings of the National Academy of Sciences of the …, 2022)",
  "format": "physicochemical",
  "conditions": "n = 3",
  "data": [
    {"substance": "AgTx2: scorpion toxin that binds in the external pore region of K+ channels", "values": [
      {"measurement": "partitioning into LUVs", "result": "did not partition"}
    ]}
  ]
}
